For two substances, GK activity (glucose-6-phosphate dehydrogenase-coupled assay) and Ki results are on record in publication PMC3989220.

The target in test [1] is Glucokinase (GK) cloned from rat hypothalamic tanycyte cultures, recombinant (rat) (UniProt P17712).
For test [2] the target is unchanged. Kind of test: enzyme inhibition kinetics (glucose-6-phosphate dehydrogenase-coupled GK activity assay, Segel plot); GK saturation curves with glucose in the presence of 0.1 and 0.2 µM purified GKRP; 200 mM Tris-HCl pH 7.5, 2 mM MgCl2, 1 mM DTT, 1 mM ATP, 0.5 mM NADP+, 37°C, 5 min; Ki from Segel's graph for an allosteric modulator of a cooperative enzyme.
The target is the same in test [3]. Described as above. The source holds these as a separate data set.
In another test the target is GKRP (Rattus norvegicus) (UniProt Q07071). The conditions noted are these: cited from earlier work.

Like-named read-outs stand apart in the source and are kept apart here.

Sequence of UniProt Q07071 (Q07071 whole entry): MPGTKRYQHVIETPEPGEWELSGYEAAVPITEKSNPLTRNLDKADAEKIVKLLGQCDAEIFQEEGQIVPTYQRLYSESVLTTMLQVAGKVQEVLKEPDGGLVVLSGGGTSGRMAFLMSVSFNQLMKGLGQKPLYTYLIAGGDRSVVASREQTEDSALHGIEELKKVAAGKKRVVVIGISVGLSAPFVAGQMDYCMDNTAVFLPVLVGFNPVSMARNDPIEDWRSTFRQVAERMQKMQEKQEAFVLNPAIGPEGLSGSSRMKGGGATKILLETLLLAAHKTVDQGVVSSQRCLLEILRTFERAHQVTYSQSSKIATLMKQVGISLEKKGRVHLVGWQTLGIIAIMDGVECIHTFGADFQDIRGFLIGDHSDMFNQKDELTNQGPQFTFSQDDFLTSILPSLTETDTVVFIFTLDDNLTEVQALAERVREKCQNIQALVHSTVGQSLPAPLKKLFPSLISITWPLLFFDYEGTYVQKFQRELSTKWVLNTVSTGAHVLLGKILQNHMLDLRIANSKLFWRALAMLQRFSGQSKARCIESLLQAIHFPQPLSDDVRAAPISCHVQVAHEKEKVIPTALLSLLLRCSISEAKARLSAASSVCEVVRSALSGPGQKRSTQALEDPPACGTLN

Regarding “Glucokinase regulatory protein (GKRP) cloned from rat hypothalamic tanycyte cultures, recombinant (from UniProt Q07071 1-627) (natural protein)”, the GK activity (glucose-6-phosphate dehydrogenase-coupled assay) at 5 min with 10 mM glucose and 0.05-0.25 µM GKRP; IC50 by nonlinear extrapolation in test [1] is 280 µM. For the same substance, the results for the Ki in test [2] and in test [3] were 0.21 µM and 210 µM, respectively.
As to Glucokinase (from UniProt P17712), the Ki (in general, a dissociation constant, usually derived from enzyme kinetics or from competition with a known ligand) in the test with GKRP (Rattus norvegicus) is 1 µM.
